Data set [1] concerns Bxb1 integrase (Mycobacteriophage Bxb1?). The experiment in a line: cell_activity. The settings on record: 0.85% without integrase.
In data set [2] the test system is T1, Bxb1 integrase, codon-optimized with bipartite Xenopus NLS (Mycobacteriophage Bxb1?).
T1 sequence: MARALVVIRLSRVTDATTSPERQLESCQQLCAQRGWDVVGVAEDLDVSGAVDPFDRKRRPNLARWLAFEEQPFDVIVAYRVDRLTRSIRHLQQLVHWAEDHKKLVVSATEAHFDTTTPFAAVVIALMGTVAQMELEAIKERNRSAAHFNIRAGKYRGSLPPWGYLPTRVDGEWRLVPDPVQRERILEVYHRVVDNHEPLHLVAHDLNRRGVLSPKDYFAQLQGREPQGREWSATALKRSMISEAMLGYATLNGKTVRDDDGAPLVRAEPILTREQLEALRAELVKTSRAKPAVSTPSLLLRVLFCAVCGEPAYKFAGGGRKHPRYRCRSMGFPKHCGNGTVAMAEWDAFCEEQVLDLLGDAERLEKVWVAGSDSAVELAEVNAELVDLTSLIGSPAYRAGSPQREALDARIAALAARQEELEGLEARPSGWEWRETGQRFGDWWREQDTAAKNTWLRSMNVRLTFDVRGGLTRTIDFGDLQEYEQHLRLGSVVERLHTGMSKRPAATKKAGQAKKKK
The experiment in a line: cell_activity. As to conditions: 1 mM VPA as printed, 27.6% without VPA.

Take Bxb1 attB (donor plasmid with GFP): the activity (% GFP-positive cells) in data set [1] (attB donor partner of attP at H11 in HEK293) was 19.4. In data set [2] (attB donor partner, HEK293 H11), this substance came in with an activity (% integration) of 45.2.
In data set [1] (attP x attB integration at H11 in HEK293, AAVS1 locus 15.4% (0.74% without)), “Bxb1 attP (landing pad at H11 or AAVS1 locus)” yielded an activity (% GFP-positive cells) of 19.4. For the same substance, in data set [2] (HEK293 H11 attP, 43.5% at 700 nM VPA), the activity (% integration) came out at 45.2.

The values are drawn from patent US20200385710.
